Measurements as given in publication PMC6555819, “Comprehensive study of nuclear receptor DNA binding provides a revised framework for understanding receptor specificity”.

How the values were obtained:
RARa:RXRa = RARa:RXRa (Homo sapiens, UniProt P10276;P19793 full;full); assay: no ligand; PBM; 270 nM : 90 nM RXRa; PBS pH 7.4, 2% milk, 0.02% Triton X-100, 1 mM DTT, BSA, 0.4 mg/ml salmon testes DNA; settings: tags: His kept;His cleaved; copies: 1;1; label: surface-attached array probe
Method in brief: (§1)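 Random background probes are the reference for binding z-scores. These scores derive from regression-normalized fluorescence on custom Agilent 4×180K protein-binding microarrays incubated 1 h with ligand-free nuclear receptor dimers. Binding was detected with antibodies against each partner (one per run).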

LXRb:RXRa = LXRb:RXRa (Homo sapiens, UniProt P55055;P19793 full;full); assay: as above; settings: tags: His kept;His cleaved; copies: 1;1; label: surface-attached array probe
LXRb:RXRa, sequence (P55055 whole entry, chain 1 of 2): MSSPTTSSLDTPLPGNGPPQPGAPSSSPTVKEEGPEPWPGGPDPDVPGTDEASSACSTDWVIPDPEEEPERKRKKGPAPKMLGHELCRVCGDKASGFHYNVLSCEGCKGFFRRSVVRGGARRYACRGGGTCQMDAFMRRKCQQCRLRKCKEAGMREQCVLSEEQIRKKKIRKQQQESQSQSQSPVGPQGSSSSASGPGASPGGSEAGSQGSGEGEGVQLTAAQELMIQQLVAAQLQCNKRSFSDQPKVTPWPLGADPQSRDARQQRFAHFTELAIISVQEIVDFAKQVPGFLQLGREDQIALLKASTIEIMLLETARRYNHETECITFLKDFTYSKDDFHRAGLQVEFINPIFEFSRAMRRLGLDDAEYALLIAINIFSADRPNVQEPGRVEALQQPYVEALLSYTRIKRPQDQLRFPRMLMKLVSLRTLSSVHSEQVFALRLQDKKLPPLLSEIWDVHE
LXRb:RXRa, sequence (P19793 whole entry, chain 2 of 2): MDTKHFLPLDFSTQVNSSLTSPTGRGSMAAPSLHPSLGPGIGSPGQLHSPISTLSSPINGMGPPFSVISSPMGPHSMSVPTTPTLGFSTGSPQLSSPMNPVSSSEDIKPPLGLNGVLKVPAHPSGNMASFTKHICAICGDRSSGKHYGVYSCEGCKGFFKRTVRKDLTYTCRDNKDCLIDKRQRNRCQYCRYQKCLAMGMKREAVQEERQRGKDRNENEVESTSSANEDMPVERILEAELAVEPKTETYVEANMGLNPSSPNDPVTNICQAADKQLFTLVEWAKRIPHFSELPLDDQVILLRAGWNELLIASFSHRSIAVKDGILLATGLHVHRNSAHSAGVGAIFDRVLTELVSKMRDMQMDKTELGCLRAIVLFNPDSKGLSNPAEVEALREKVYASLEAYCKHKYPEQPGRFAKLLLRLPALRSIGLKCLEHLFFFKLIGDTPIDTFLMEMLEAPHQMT
Method in brief: as §1

RXRa = RXRa (Homo sapiens, UniProt P19793); assay: no ligand; PBM; 180 nM; PBS pH 7.4, 2% milk, 0.02% Triton X-100, 1 mM DTT, BSA, 0.4 mg/ml salmon testes DNA; settings: tags: His cleaved; chain copies: 2; label: surface-attached array probe
RXRa, sequence (P19793 whole entry): as the sequence (P19793 whole entry, chain 2 of 2) above
PPARa:RXRa = PPARa:RXRa (Homo sapiens, UniProt Q07869;P19793 full;full); assay: no ligand; PBM; 270 nM : 90 nM RXRa; PBS pH 7.4, 2% milk, 0.02% Triton X-100, 1 mM DTT, BSA, 0.4 mg/ml salmon testes DNA; settings: tags: GST kept;His cleaved; copies: 1;1; label: surface-attached array probe
PPARa:RXRa, sequence (Q07869 whole entry, chain 1 of 2): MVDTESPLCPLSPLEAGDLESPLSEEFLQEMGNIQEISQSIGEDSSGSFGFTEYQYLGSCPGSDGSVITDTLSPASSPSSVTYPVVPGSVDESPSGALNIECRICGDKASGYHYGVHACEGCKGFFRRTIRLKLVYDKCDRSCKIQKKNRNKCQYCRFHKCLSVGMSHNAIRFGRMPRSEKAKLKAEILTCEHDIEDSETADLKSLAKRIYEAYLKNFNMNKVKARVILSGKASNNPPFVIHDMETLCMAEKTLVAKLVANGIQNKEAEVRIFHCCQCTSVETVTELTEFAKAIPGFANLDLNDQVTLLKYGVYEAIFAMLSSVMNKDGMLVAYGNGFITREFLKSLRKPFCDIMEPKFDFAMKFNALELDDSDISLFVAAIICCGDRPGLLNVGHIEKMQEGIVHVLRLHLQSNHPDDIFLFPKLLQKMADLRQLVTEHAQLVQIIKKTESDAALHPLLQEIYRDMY
PPARa:RXRa, sequence (P19793 whole entry, chain 2 of 2): as the sequence (P19793 whole entry, chain 2 of 2) above
Method in brief: as §1

VDR:RXRa = VDR:RXRa (Homo sapiens, UniProt P11473;P19793 full;full); assay: as above; settings: tags: His kept;His cleaved; copies: 1;1; label: surface-attached array probe
VDR:RXRa, sequence (P11473 whole entry, chain 1 of 2): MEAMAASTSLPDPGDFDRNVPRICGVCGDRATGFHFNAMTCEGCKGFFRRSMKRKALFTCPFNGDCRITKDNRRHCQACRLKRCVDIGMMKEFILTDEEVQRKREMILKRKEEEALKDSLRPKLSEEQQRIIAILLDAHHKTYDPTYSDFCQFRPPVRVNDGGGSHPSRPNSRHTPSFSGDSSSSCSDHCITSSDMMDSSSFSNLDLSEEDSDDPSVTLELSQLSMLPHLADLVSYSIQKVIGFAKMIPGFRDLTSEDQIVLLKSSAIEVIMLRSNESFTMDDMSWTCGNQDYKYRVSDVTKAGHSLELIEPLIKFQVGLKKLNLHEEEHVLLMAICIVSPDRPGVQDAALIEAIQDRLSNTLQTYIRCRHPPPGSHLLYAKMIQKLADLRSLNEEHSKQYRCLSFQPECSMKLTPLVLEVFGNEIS
VDR:RXRa, sequence (P19793 whole entry, chain 2 of 2): as the sequence (P19793 whole entry, chain 2 of 2) above
Method in brief: as §1

FXR:RXRa = FXR:RXRa (Homo sapiens, UniProt Q96RI1;P19793 full;full); assay: as above; settings: tags: His kept;His cleaved; copies: 1;1; label: surface-attached array probe
FXR:RXRa, sequence (Q96RI1 whole entry, chain 1 of 2): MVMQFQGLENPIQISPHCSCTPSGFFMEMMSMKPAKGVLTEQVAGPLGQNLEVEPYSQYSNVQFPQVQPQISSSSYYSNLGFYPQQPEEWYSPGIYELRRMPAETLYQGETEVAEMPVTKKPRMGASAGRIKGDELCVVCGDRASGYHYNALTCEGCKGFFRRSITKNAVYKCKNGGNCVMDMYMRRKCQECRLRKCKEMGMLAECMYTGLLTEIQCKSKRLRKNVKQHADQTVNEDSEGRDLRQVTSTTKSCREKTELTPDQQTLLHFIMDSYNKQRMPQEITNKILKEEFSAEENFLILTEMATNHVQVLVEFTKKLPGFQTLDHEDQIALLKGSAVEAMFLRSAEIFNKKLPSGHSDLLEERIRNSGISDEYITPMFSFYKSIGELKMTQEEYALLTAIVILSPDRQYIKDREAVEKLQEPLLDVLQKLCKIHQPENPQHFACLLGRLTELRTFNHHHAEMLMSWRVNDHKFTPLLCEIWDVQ
FXR:RXRa, sequence (P19793 whole entry, chain 2 of 2): as the sequence (P19793 whole entry, chain 2 of 2) above
Method in brief: as §1

LXRa:RXRa = LXRa:RXRa (Homo sapiens, UniProt Q13133;P19793 full;full); assay: as above; settings: tags: His kept;His cleaved; copies: 1;1; label: surface-attached array probe
LXRa:RXRa, sequence (Q13133 whole entry, chain 1 of 2): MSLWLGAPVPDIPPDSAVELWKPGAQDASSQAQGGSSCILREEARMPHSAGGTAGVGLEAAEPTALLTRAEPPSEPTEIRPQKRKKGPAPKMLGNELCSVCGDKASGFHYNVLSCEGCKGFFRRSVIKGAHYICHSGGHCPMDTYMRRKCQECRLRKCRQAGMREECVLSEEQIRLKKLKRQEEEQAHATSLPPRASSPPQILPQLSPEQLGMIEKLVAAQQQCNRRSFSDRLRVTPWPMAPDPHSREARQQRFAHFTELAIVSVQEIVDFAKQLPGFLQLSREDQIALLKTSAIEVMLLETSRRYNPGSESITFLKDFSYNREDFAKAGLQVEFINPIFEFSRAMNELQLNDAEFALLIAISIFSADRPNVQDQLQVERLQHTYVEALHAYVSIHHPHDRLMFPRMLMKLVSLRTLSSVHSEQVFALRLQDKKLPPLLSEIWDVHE
LXRa:RXRa, sequence (P19793 whole entry, chain 2 of 2): as the sequence (P19793 whole entry, chain 2 of 2) above
Method in brief: as §1

RARg:RXRa = RARg:RXRa (Homo sapiens, UniProt P13631;P19793 full;full); assay: as above; settings: tags: His kept;His cleaved; copies: 1;1; label: surface-attached array probe
RARg:RXRa, sequence (P13631 whole entry, chain 1 of 2): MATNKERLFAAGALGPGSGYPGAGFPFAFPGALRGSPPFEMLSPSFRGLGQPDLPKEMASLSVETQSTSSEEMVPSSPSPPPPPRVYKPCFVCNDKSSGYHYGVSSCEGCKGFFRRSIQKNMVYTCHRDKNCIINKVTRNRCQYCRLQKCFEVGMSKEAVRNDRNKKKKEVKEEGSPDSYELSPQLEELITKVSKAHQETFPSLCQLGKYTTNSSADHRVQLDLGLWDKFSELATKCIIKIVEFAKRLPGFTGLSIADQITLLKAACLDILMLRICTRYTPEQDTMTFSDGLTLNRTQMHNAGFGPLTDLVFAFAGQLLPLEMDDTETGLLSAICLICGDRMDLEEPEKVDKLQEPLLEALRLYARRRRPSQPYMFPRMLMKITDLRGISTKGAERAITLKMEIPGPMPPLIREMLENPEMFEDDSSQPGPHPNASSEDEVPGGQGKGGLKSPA
RARg:RXRa, sequence (P19793 whole entry, chain 2 of 2): as the sequence (P19793 whole entry, chain 2 of 2) above
Method in brief: as §1

RARb:RXRa = RARb:RXRa (Homo sapiens, UniProt P10826;P19793 full;full); assay: as above; settings: tags: His kept;His cleaved; copies: 1;1; label: surface-attached array probe
RARb:RXRa, sequence (P10826 whole entry, chain 1 of 2): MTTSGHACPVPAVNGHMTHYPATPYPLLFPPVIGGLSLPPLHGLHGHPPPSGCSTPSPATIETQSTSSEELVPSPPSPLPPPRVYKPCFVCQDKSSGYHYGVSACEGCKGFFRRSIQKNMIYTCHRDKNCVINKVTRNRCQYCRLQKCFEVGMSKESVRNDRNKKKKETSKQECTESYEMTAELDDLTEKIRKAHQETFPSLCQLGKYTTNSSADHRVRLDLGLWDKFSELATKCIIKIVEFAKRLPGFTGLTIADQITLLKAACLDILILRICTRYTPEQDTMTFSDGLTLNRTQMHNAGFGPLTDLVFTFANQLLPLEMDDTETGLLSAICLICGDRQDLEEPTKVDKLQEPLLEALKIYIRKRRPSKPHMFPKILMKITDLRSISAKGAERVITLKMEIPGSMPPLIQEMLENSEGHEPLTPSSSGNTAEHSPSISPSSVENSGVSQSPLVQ
RARb:RXRa, sequence (P19793 whole entry, chain 2 of 2): as the sequence (P19793 whole entry, chain 2 of 2) above
Method in brief: as §1

RARa:RXRa, sequence (P10276 whole entry, chain 1 of 2): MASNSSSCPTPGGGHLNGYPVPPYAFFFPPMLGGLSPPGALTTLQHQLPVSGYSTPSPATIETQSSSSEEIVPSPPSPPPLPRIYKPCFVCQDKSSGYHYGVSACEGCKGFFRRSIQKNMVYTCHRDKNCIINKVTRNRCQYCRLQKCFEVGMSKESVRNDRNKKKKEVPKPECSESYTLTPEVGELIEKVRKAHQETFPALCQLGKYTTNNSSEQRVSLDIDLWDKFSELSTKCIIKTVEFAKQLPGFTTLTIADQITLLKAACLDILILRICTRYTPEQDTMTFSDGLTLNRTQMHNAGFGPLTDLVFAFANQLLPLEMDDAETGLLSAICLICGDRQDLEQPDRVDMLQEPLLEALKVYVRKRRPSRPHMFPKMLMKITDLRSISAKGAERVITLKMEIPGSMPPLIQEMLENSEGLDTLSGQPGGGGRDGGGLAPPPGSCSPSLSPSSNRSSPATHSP
RARa:RXRa, sequence (P19793 whole entry, chain 2 of 2): as the sequence (P19793 whole entry, chain 2 of 2) above

B1: NRC3_wobSeed36_DR1_T8G_o1 (dsDNA)
DNA 1: GCCCGACGGGGGCAAAGGTTACCATACTCAGTACGAGCGATTGACAGCGTAGAATGAAGG
DNA 2: CCTTCATTCTACGCTGTCAATCGCTCGTACTGAGTATGGTAACCTTTGCCCCCGTCGGGC
With B1 as the binder, how does the binding signal (RARa:RXRa) read?
The binding signal was 7.46 PBM z-score against 500 random probes.

What about the binding signal (LXRb:RXRa) of the same binder?
Its binding signal is 5.85 PBM z-score against 500 random probes.

What about the binding signal (RXRa) of the same binder?
Its binding signal is 7.82 PBM z-score against 500 random probes.

B2: NRC3_random_hg19_281_o1 (dsDNA)
DNA 1: GCTTGTTGCTTCTGTTCTACGCCAGTGACTTGGAAAGCGATTGACAGCGTAGAATGAAGG
DNA 2: CCTTCATTCTACGCTGTCAATCGCTTTCCAAGTCACTGGCGTAGAACAGAAGCAACAAGC
What does the source list for B2?
binding signal (RARa:RXRa): -0.05 PBM z-score against 500 random probes; binding signal (PPARa:RXRa): -0.08 PBM z-score against 500 random probes; binding signal (VDR:RXRa): -0.16 PBM z-score against 500 random probes

B3: NRC3_random_hg19_37_o1 (dsDNA)
DNA 1: GCTTTGCCAGGTGCGGTGGCTCAATGCCTGTAATCCGCGATTGACAGCGTAGAATGAAGG
DNA 2: CCTTCATTCTACGCTGTCAATCGCGGATTACAGGCATTGAGCCACCGCACCTGGCAAAGC
How did the binding signal (RARa:RXRa) turn out when B3 was run?
Its binding signal is -0.74 PBM z-score against 500 random probes.

What about the binding signal (LXRb:RXRa) of the same binder?
Its binding signal is -1.03 PBM z-score against 500 random probes.

B4: NRC3_wobSeed42_DR1_G22A_o1 (dsDNA)
DNA 1: GCTATACAGGGTCAAAGGCCAAAGTACGAATGTCGAGCGATTGACAGCGTAGAATGAAGG
DNA 2: CCTTCATTCTACGCTGTCAATCGCTCGACATTCGTACTTTGGCCTTTGACCCTGTATAGC
B4 was tested. Which binding signal (RARa:RXRa) did it give?
Its binding signal is 7.1 PBM z-score against 500 random probes.

And the binding signal (PPARa:RXRa)?
The binding signal was 6.61 PBM z-score against 500 random probes.

What about the binding signal (FXR:RXRa) of the same binder?
The binding signal was 7.75 PBM z-score against 500 random probes.

What about the binding signal (RXRa) of the same binder?
The binding signal was 8.11 PBM z-score against 500 random probes.

B5: NRC3_random_hg19_84_o1 (dsDNA)
DNA 1: GCGTAAGACACCTTCCTAGGAAGAGAACAGCAGAATGCGATTGACAGCGTAGAATGAAGG
DNA 2: CCTTCATTCTACGCTGTCAATCGCATTCTGCTGTTCTCTTCCTAGGAAGGTGTCTTACGC
What does the source list for B5?
binding signal (RARa:RXRa): -0.2 PBM z-score against 500 random probes; binding signal (FXR:RXRa): -0.49 PBM z-score against 500 random probes; binding signal (RXRa): -0.13 PBM z-score against 500 random probes

B6: NRC3_wobSeed10_DR0_G6A_o1 (dsDNA)
DNA 1: GCATCAAAAGGTCGAGGTGAGTATAGAGAAAGGGAAGCGATTGACAGCGTAGAATGAAGG
DNA 2: CCTTCATTCTACGCTGTCAATCGCTTCCCTTTCTCTATACTCACCTCGACCTTTTGATGC
What does the source list for B6?
binding signal (RARa:RXRa): 3.83 PBM z-score against 500 random probes; binding signal (LXRb:RXRa): 3.24 PBM z-score against 500 random probes

B7: NRC3_random_hg19_205_o1 (dsDNA)
DNA 1: GCGAATCATCATGAGCTCAGAATGATCCTAGGCAGAGCGATTGACAGCGTAGAATGAAGG
DNA 2: CCTTCATTCTACGCTGTCAATCGCTCTGCCTAGGATCATTCTGAGCTCATGATGATTCGC
How did the binding signal (RARa:RXRa) turn out when B7 was run?
The binding signal was -0.66 PBM z-score against 500 random probes.

What about the binding signal (LXRb:RXRa) of the same binder?
Its binding signal is -0.63 PBM z-score against 500 random probes.

B8: NRC3_wobSeed130_DR5_G22A_o1 (dsDNA)
DNA 1: GCCTCGAAAGGTCGTGCTCAGATGAGTATACCAAACGCGATTGACAGCGTAGAATGAAGG
DNA 2: CCTTCATTCTACGCTGTCAATCGCGTTTGGTATACTCATCTGAGCACGACCTTTCGAGGC
For B8, which binding signal (RARa:RXRa) is on record?
The binding signal was 3.27 PBM z-score against 500 random probes.

And the binding signal (LXRa:RXRa)?
Its binding signal is 3.83 PBM z-score against 500 random probes.

B9: NRC3_wobSeed61_DR2_C7A_o1 (dsDNA)
DNA 1: GCCGTCAAAGGTCAGCAGGTCAGTGAAAGCGACGTGGCGATTGACAGCGTAGAATGAAGG
DNA 2: CCTTCATTCTACGCTGTCAATCGCCACGTCGCTTTCACTGACCTGCTGACCTTTGACGGC
With B9 as the binder, how does the binding signal (RARa:RXRa) read?
The binding signal was 7.38 PBM z-score against 500 random probes.

What about the binding signal (RARg:RXRa) of the same binder?
Its binding signal is 8.13 PBM z-score against 500 random probes.

And the binding signal (RARb:RXRa)?
Its binding signal is 6.16 PBM z-score against 500 random probes.

What about the binding signal (PPARa:RXRa) of the same binder?
Its binding signal is 6.49 PBM z-score against 500 random probes.

And the binding signal (FXR:RXRa)?
The binding signal was 8.26 PBM z-score against 500 random probes.

What about the binding signal (RXRa) of the same binder?
Its binding signal is 7.98 PBM z-score against 500 random probes.

B10: NRC3_wobSeed45_DR1_A20G_o1 (dsDNA)
DNA 1: GCTGTCAAAGTTCAAAGGTGACGTAAGTATCCACACGCGATTGACAGCGTAGAATGAAGG
DNA 2: CCTTCATTCTACGCTGTCAATCGCGTGTGGATACTTACGTCACCTTTGAACTTTGACAGC
For B10, which binding signal (RARa:RXRa) is on record?
The binding signal was 7.89 PBM z-score against 500 random probes.

What about the binding signal (FXR:RXRa) of the same binder?
Its binding signal is 7.78 PBM z-score against 500 random probes.

And the binding signal (RXRa)?
Its binding signal is 8.27 PBM z-score against 500 random probes.

B11: NRC3_wobSeed49_DR2_G16A_o1 (dsDNA)
DNA 1: GCCAAACTAGGTCAAAAGGTCAAAGTCCGCTTCCCGGCGATTGACAGCGTAGAATGAAGG
DNA 2: CCTTCATTCTACGCTGTCAATCGCCGGGAAGCGGACTTTGACCTTTTGACCTAGTTTGGC
B11 was tested. Which binding signal (RARa:RXRa) did it give?
The binding signal was 8.77 PBM z-score against 500 random probes.

What about the binding signal (LXRa:RXRa) of the same binder?
The binding signal was 7.1 PBM z-score against 500 random probes.

What about the binding signal (RARg:RXRa) of the same binder?
The binding signal was 8.94 PBM z-score against 500 random probes.

And the binding signal (RARb:RXRa)?
Its binding signal is 6 PBM z-score against 500 random probes.

What about the binding signal (LXRb:RXRa) of the same binder?
Its binding signal is 6.34 PBM z-score against 500 random probes.

And the binding signal (PPARa:RXRa)?
The binding signal was 7.14 PBM z-score against 500 random probes.

What about the binding signal (RXRa) of the same binder?
Its binding signal is 9.09 PBM z-score against 500 random probes.
